Reference: paper PMC8531034, “Structural insights into RNA polymerase III-mediated transcription termination through trapping poly-deoxythymidine” (Nature Communications, 2021)

B1: RPC2, subunit of human RNA polymerase III (natural protein)
chain: MDVLAEEFGNLTPEQLAAPIPTVEEKWRLLPAFLKVKGLVKQHIDSFNYFINVEIKKIMKANEKVTSDADPMWYLKYLNIYVGLPDVEESFNVTRPVSPHECRLRDMTYSAPITVDIEYTRGSQRIIRNALPIGRMPIMLRSSNCVLTGKTPAEFAKLNECPLDPGGYFIVKGVEKVILIQEQLSKNRIIVEADRKGAVGASVTSSTHEKKSRTNMAVKQGRFYLRHNTLSEDIPIVIIFKAMGVESDQEIVQMIGTEEHVMAAFGPSLEECQKAQIFTQMQALKYIGNKVRRQRMWGGGPKKTKIEEARELLASTILTHVPVKEFNFRAKCIYTAVMVRRVILAQGDNKVDDRDYYGNKRLELAGQLLSLLFEDLFKKFNSEMKKIADQVIPKQRAAQFDVVKHMRQDQITNGMVNAISTGNWSLKRFKMDRQGVTQVLSRLSYISALGMMTRISSQFEKTRKVSGPRSLQPSQWGMLCPSDTPEGEACGLVKNLALMTHITTDMEDGPIVKLASNLGVEDVNLLCGEELSYPNVFLVFLNGNILGVIRDHKKLVNTFRLMRRAGYINEFVSISTNLTDRCVYISSDGGRLCRPYIIVKKQKPAVTNKHMEELAQGYRNFEDFLHESLVEYLDVNEENDCNIALYEHTINKDTTHLEIEPFTLLGVCAGLIPYPHHNQSPRNTYQCAMGKQAMGTIGYNQRNRIDTLMYLLAYPQKPMVKTKTIELIEFEKLPAGQNATVAVMSYSGYDIEDALVLNKASLDRGFGRCLVYKNAKCTLKRYTNQTFDKVMGPMLDAATRKPIWRHEILDADGICSPGEKVENKQVLVNKSMPTVTQIPLEGSNVPQQPQYKDVPITYKGATDSYIEKVMISSNAEDAFLIKMLLRQTRRPEIGDKFSSRHGQKGVCGLIVPQEDMPFCDSGICPDIIMNPHGFPSRMTVGKLIELLAGKAGVLDGRFHYGTAFGGSKVKDVCEDLVRHGYNYLGKDYVTSGITGEPLEAYIYFGPVYYQKLKHMVLDKMHARARGPRAVLTRQPTEGRSRDGGLRLGEMERDCLIGYGASMLLLERLMISSDAFEVDVCGQCGLLGYSGWCHYCKSSCHVSSLRIPYACKLLFQELQSMNIIPRLKLSKYNE
notes: RPC2, second largest subunit of human RNA polymerase III (catalytic core; lobe, protrusion, fork loops 1 and 2); Subunit of the 17-subunit Pol III complex; source: Expi293F cells, transiently expressed, purified to homogeneity as part of the recombinant human Pol III complex

What was measured:
[1] = target: B1; experiment: cryo-EM structure; recombinant human Pol III (17 subunits) assembled with a DNA-RNA scaffold with seven dT in the non-template strand, 1:2 molar ratio, dialysed in 20 mM HEPES pH 8.0, 150 mM NaCl, 2 mM MgCl2, 2 mM DTT; 3D classification gave two states, PTC (3.6 Å, core 3.3 Å) and EC (3.6 Å); conditions: both partners purified
[2] = target: T1, RPC1, subunit of human RNA polymerase III (human, UniProt O14802 1-1390); experiment: as above; conditions: both partners purified
T1 construct: RPC1, largest subunit of human RNA polymerase III (catalytic core); Subunit of the 17-subunit Pol III complex; source: Expi293F cells, transiently expressed, purified to homogeneity as part of the recombinant human Pol III complex
T1 sequence: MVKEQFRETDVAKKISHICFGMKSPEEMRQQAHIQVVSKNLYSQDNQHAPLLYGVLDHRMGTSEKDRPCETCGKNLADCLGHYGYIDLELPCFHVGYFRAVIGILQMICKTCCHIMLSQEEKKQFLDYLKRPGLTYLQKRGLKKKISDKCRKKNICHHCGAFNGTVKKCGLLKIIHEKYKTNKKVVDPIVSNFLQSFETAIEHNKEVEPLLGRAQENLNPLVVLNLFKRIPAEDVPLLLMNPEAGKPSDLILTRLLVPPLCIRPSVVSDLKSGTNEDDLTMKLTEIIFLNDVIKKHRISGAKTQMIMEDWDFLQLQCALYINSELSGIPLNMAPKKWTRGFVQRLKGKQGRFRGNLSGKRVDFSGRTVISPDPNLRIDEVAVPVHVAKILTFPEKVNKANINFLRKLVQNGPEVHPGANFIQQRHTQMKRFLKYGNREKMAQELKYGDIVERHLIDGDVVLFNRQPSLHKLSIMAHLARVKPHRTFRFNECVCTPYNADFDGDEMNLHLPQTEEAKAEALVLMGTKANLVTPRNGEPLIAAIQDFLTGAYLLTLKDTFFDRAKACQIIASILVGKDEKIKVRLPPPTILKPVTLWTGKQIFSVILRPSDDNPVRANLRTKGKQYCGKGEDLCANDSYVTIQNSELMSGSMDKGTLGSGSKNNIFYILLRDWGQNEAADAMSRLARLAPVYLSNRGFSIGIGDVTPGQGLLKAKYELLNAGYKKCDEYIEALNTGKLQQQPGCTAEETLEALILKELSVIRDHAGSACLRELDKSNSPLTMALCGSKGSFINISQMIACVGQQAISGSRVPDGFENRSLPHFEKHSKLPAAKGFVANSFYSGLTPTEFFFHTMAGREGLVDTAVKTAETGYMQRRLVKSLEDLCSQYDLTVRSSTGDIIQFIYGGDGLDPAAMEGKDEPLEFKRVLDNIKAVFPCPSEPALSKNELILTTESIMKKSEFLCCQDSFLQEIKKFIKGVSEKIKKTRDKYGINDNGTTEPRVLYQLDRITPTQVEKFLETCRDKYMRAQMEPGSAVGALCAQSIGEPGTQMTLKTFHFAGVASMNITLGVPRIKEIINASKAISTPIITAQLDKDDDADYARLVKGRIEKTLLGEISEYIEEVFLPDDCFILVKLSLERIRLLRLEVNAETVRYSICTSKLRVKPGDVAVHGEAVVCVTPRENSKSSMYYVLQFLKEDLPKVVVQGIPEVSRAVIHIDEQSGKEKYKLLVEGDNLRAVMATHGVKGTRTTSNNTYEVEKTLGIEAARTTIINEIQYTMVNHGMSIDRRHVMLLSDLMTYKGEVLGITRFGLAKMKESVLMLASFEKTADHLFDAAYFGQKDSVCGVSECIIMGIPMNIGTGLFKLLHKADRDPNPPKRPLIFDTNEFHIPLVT

Binder | binding result [1] | binding result [2]
RPC10, subunit of human RNA polymerase III (natural protein, RPC10 of human RNA polymerase III, with N-terminal ribbon domain (N-ribbon) and C-terminal ribbon domain (C-ribbon); Subunit of the 17-subunit Pol III complex; also called C11 (yeast equivalent); source: Expi293F cells, transiently expressed, purified to homogeneity as part of the recombinant human Pol III complex) not shown | binds | –
RPC4-RPC5 dimer module of human RNA polymerase III (complex, RPC4 of human RNA polymerase III (dimer module); RPC5 of human RNA polymerase III (dimer module; holds the hotspot); the mammal-specific C-terminal domain was not seen in the PTC map; Named throughout as a heterodimer; Part of the 17-subunit Pol III complex; also called RPC4-5; C53-C37 (yeast equivalent); source: Expi293F cells, transiently expressed, purified to homogeneity as part of the …) chain 1: MSEGNAAGEPSTPGGPRPLLTGARGLIGRRPAPPLTPGRLPSIRSRDLTLGGVKKKTFTPNIISRKIKEEPKEEVTVKKEKRERDRDRQREGHGRGRGRPEVIQSHSIFEQGPAEMMKKKGNWDKTVDVSDMGPSHIINIKKEKRETDEETKQILRMLEKDDFLDDPGLRNDTRNMPVQLPLAHSGWLFKEENDEPDVKPWLAGPKEEDMEVDIPAVKVKEEPRDEEEEAKMKAPPKAARKTPGLPKDVSVAELLRELSLTKEEELLFLQLPDTLPGQPPTQDIKPIKTEVQGEDGQVVLIKQEKDREAKLAENACTLADLTEGQVGKLLIRKSGRVQLLLGKVTLDVTMGTACSFLQELVSVGLGDSRTGEMTVLGHVKHKLVCSPDFESLLDHKHR chain 2: MANEEDDPVVQEIDVYLAKSLAEKLYLFQYPVRPASMTYDDIPHLSAKIKPKQQKVELEMAIDTLNPNYCRSKGEQIALNVDGACADETSTYSSKLMDKQTFCSSQTTSNTSRYAAALYRQGELHLTPLHGILQLRPSFSYLDKADAKHREREAANEAGDSSQDEAEDDVKQITVRFSRPESEQARQRRVQSYEFLQKKHAEEPWVHLHYYGLRDSRSEHERQYLLCPGSSGVENTELVKSPSEYLMMLMPPSQEEEKDKPVAPSNVLSMAQLRTLPLADQIKILMKNVKVMPFANLMSLLGPSIDSVAVLRGIQKVAMLVQGNWVVKSDILYPKDSSSPHSGVPAEVLCRGRDFVMWKFTQSRWVVRKEVATVTKLCAEDVKDFLEHMAVVRINKGWEFILPYDGEFIKKHPDVVQRQHMLWTGIQAKLEKVYNLVKETMPKKPDAQSGPAGLVCGDQRIQVAKTKAQQNHALLERELQRRKEQLRVPAVPPGVRIKEEPVSEEGEEDEEQEAEEEPMDTSPSGLHSKLANGLPLGRAAGTDSFNGHPPQGCASTPVARELKAFVEATFQRQFVLTLSELKRLFNLHLASLPPGHTLFSGISDRMLQDTVLAAGCKQILVPFPPQTAASPDEQKVFALWESGDMSDQHRQVLLEIFSKNYRVRRNMIQSRLTQECGEDLSKQEVDKVLKDCCVSYGGMWYLKGTVQS | binds | –
B1 | – | binds
